Patent publication US20200277361A1 (PROTHENA BIOSCIENCES, published 2020)

How the values were obtained:
[1] = target: T1, pH4.0-treated TTR (human, UniProt P02766 21-147); assay: Sandwich ELISA (pH4-TTR)
[2] = target: recombinant human TTR F87M/L110M (human, UniProt P02766 21-147); assay: SPR, mAb captured on anti-mouse IgG chip, TTR F87M/L110M as analyte
[3] = target: T1, pH4.0-treated TTR; assay: ELISA on pH4-treated TTR captured on an anti-His coated plate, anti-mouse HRP detection, OD450
[4] = target: T1, pH4.0-treated TTR; assay: ELISA, pH4-TTR captured on anti-His coated plate

Kd [1]: 21.3 nM
Kd [2]: 7.68 nM
koff [2]: 0.000469 s⁻¹
kon [2]: 61100 M⁻¹ s⁻¹
EC50 (read off the curve) [3]: ~0.3 µg/mL
Kd [4]: 23 nM
B1: mouse antibody 5A1 (antibody, IgG1, V domains shown)
VH: EVKLVESGGGLVRPGGSLKLSCAASGFTFSNYAMSWVRQTPEKRLEWVASISSGGSTYYPDSVKGRFTISRDNARNILYLQMSSLRSEDTAMYYCVRYYYGQYFDFWGQGTALTVSS
VL: DIVMTQSHKFMSTSVGDRVSITCKASQDVSTTVAWYRQKPGQSPELLIYSASYRCTGVPDRFTGSGSGADFTFTISSVQAEDLAVYYCQQHYSTPLTFGAGTKLELK
notes: also called m5A1; mis-TTR antibody 5A1
